One sequence from patent US20200247849A1, “PEPTIDE AGONISTS AND ANTAGONISTS OF TLR4 ACTIVATION” (PEPTICOM LTD, priority 2016, published 2020) can be followed below.

One assay has as its target T1, CD14-TLR4 (Homo sapiens, UniProt P08571).
T1 construct: expressed in transfected cells; host or cells: NIH3T3
T1 sequence (P08571 20-345 limits assumed): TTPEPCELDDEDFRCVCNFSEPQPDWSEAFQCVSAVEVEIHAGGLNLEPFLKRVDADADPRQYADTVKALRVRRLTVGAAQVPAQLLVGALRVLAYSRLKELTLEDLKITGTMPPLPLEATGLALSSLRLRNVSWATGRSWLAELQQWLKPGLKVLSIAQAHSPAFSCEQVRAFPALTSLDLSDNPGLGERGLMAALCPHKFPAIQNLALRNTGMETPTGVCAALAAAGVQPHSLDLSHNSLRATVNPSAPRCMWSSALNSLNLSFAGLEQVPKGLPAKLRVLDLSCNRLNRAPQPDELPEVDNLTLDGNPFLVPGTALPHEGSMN
In words: Reporter gene assay, NIH3T3 cells transfected with CD14 and TLR4, LPS-mediated activation. Type of assay: cell-based. The settings on record: FIG. 6I. The text has this: FIGS. 6A-6V present peptide activity using NIH3T3 cells that express TLR4, with either the MD2 co-receptor (top) or CD14 co-receptor (bottom), for peptides of SEQ ID Nos. 1-22, respectively, according to some embodiments of the invention. FIGS. 6A-6V show the dose response inhibitor/activator effects of the designed peptides using a reporter gene assay. The reporter gene assay is composed of NIH3T3 cells transfected with either MD2 or CD14 along with TLR4 and the NF-κB-inducible reporter gene Secreted Alkaline Phosphatase (SEAP) to monitor TLR4 activation (Burger-Kentischer et al. 2010, A new cell-based innate immune receptor assay for the examination of receptor activity, ligand specificity, signaling pathways and the detection of pyrogens. J Immunol Methods. 358(1-2): 93-103). […] The receptors are coupled to for the detection of inhibitory activity, cells were treated with the peptide prior to exposure to LPS and the response to LPS is measured at variable peptide doses (as labeled). […]
At Day 3: To determine the final SEAP value, 50 μl of the supernatant is carefully transferred in a new 96-well plate (Greiner-F-plate) and 50 μl of the substrate (pNPP; p-nitrophenyl phosphate) is added. SEAP catalyzes the hydrolysis of pNPP to the final product para-nitrophenol (yellow) which can be detected by a photometric analysis using an UV-VIS reader at 405 nm. […]
On the technique in general: In a reporter assay the amount or activity of a reporter protein is the signal.

Another assay concerns the target T2, TLR1/2 (Mus musculus, UniProt Q9EPQ1+Q9QUN7).
T2 construct: endogenous in cells; host or cells: primary mouse macrophages
Nature of the assay: TNF-a release from primary mouse macrophages exposed to PAM3. In kind it is cell-based. As to conditions: primary mouse macrophages exposed to PAM3, FIG. 7. From the text:
The top graph presents TNF-a release from primary mouse macrophages exposed to LPS treated with either peptide SEQ ID No. 9 or a control peptide while the bottom graph presents TNF-a release from primary mouse macrophages exposed to PAM3 treated with either peptide SEQ ID No. 9 or a control peptide. […] This method had been previously described (Lerner et al. 2011, Heparanase powers a chronic inflammatory circuit that promotes colitis-associated tumorigenesis in mice. J Clin Invest. 121(5): 1709-1721).

T2 sequence (Q9EPQ1 26-795): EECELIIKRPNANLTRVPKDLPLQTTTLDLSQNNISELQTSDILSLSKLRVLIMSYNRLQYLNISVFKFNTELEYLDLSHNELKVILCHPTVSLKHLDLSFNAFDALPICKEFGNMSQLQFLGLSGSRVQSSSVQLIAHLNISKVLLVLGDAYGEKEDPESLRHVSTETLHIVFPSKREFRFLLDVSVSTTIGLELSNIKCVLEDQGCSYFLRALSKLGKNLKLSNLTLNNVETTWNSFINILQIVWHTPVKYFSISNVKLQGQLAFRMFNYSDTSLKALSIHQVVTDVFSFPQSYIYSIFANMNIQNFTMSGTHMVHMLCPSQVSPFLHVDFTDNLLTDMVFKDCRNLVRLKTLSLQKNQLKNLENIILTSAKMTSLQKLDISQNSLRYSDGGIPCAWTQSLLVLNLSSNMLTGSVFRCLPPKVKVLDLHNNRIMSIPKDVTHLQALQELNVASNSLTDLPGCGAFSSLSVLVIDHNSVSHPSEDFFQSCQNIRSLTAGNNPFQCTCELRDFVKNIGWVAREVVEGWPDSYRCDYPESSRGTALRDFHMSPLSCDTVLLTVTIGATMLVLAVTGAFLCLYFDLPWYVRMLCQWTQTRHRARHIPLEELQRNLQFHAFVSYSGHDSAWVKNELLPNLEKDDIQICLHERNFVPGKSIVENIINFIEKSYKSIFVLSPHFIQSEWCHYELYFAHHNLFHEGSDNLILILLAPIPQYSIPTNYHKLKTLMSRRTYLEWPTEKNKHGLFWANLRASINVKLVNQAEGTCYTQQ
T2 sequence (Q9QUN7 25-784): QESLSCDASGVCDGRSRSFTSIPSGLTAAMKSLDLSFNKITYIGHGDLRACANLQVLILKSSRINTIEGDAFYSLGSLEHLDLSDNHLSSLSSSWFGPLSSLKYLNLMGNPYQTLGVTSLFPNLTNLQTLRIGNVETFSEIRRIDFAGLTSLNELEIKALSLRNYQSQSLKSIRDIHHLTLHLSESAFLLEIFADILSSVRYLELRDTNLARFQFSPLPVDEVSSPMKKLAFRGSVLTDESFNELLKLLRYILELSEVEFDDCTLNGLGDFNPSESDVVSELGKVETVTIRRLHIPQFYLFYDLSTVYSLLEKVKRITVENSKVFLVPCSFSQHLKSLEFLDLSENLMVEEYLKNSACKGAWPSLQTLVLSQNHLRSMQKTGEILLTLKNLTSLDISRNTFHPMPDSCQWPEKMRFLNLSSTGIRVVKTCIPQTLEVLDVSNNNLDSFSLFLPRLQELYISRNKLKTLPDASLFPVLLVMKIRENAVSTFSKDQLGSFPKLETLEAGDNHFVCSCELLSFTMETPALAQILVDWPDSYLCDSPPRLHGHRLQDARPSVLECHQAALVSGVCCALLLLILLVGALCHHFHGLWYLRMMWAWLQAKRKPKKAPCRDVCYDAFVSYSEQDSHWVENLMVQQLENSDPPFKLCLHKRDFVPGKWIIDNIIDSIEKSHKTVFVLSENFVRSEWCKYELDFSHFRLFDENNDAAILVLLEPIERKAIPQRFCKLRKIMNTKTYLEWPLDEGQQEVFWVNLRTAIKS

Regarding ILFMGMKWL (Inhibitor) [SEQ ID No. 9], the “inhibition of LPS mediated CD14-TLR4 activation” value with CD14-TLR4 is given as “inability of to inhibit”. In addition, the “effect on PAM3 induced TNF-a release” value with TLR1/2 was “no significant effect”.
